This experiment addresses soluble CD4 (UniProt P01730). As to the kind of experiment: SPR. (SPR reads the build-up and loss of mass on a sensor chip optically.)
For the substance “HIV-1 YU-2 gp120 T278A (natural protein)”, the dissociation constant (Kd) (in general, the equilibrium constant for the complex coming apart) turned out to be 7.3 nM.

Take “HIV-1 YU-2 gp120 A281G (natural protein)”: the equilibrium dissociation constant (Kd) was determined as 12.3 nM.

“HIV-1 YU-2 gp120 K282A (natural protein)” showed a Kd of 11.9 nM. As for “HIV-1 YU-2 gp120 S375W/T257S (natural protein)”, the Kd was 0.9 nM. Next, “HIV-1 YU-2 gp120 N280A (natural protein)”: 6.8 nM. “HIV-1 YU-2 gp120 P124A (natural protein)” had a Kd of 26.2 nM. In turn, “HIV-1 YU-2 gp120 I423M/N425K/G431E (natural protein)” returned a Kd of 78.1 nM. For “HIV-1 YU-2 gp120 T283A (natural protein)” the value was 16.7 nM; for “HIV-1 YU-2 gp120 N279A (natural protein)”, 34.6 nM; for “HIV-1 YU-2 gp120 I420R (natural protein)”, 24.8 nM. In turn, “HIV-1 YU-2 gp120 R456A (natural protein)” returned a Kd of 11.3 nM.

The values above are taken from PMC3088361.
